For the test, the target named is Human GPR49 (LGR5), full length, on cells (human) (UniProt O75473). Description: cell-based or functional assay.
Sequence of Human GPR49 (LGR5), full length, on cells (human) (O75473 22-907 limits assumed): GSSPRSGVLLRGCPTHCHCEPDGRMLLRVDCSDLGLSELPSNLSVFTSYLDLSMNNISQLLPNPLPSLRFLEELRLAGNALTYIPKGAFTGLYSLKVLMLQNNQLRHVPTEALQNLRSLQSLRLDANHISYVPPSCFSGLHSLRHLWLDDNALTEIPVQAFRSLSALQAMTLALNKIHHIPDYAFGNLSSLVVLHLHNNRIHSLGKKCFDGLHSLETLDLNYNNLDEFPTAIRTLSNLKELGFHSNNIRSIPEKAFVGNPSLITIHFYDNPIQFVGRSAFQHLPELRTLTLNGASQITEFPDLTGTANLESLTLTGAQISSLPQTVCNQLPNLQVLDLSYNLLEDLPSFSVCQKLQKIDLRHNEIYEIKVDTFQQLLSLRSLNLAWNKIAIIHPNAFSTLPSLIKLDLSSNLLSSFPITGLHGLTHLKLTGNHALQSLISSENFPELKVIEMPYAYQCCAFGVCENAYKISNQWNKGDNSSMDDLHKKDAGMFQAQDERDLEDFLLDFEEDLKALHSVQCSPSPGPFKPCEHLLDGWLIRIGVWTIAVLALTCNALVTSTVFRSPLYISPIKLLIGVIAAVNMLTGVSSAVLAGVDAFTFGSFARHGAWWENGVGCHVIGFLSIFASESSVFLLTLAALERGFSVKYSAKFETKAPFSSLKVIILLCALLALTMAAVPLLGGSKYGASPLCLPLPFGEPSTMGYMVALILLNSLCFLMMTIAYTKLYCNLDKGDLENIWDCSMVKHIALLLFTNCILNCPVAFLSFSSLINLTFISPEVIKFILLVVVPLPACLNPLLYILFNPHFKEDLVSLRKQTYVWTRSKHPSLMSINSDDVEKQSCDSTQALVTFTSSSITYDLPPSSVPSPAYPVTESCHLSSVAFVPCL

R-spondin 1 (ligand) gave an increase in proliferation, GPR49-3T3 clone 28 of 4 fold.

For the origin of these results see US20140256041A1.
